The values below come from PMC5762634, “Domain swapping and SMYD1 interactions with the PWWP domain of human hepatoma-derived growth factor”.

The data set addresses HDGF PWWP domain (human, UniProt P51858 1-100). The experiment in a line: size-exclusion chromatography; 5 mM EDTA; SEC: 20 mM Tris-HCl pH 7.5, 5 mM EDTA, 5 mM beta-ME, no added salt; protein:DNA 1:1, incubated overnight at 4 C. The following applies: protein: recombinant; tags: His tag (pET28a, NdeI/EcoRI, Ni-NTA); chain copies: 2; blunt.

Chain of HDGF PWWP domain (P51858 1-100): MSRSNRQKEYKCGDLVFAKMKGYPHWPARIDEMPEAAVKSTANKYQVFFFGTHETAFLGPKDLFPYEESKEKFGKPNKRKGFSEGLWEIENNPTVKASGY

B1: 5-bp SMYD1 (dsDNA)
DNA 1: CAGGC
DNA 2: GCCTG
For B1, the binding result was “binds”.

B2: 15-bp SMYD1 (dsDNA)
DNA 1: CAGGCTGGTCTTGAA
DNA 2: TTCAAGACCAGCCTG
With B2, the binding result is reported as “binds”.
